“Also recorded” adds a separate entry of the source.
B1: T2-TrpRS: proteolytic fragment of tryptophan tRNA synthetase (TrpRS); SEQ ID NO: 1 (protein, listed as Homo sapiens)
chain: SAKGIDYDKLIVRFGSSKIDKELINRIERATGQRPHHFLRRGIFFSHRDMNQVLDAYENKKPFYLYTGRGPSSEAMHVGHLIPFIFTKWLQDVFNVPLVIQMTDDEKYLWKDLTLDQAYSYAVENAKDIIACGFDINKTFIFSDLDYMGMSSGFYKNVVKIQKHVTFNQVKGIFGFTDSDCIGKISFPAIQAAPSFSNSFPQIFRDRTDIQCLIPCAIDQDPYFRMTRDVAPRIGYPKPALLHSTFFPALQGAQTKMSASDPNSSIFLTDTAKQIKTKVNKHAFSGGRDTIEEHRQFGGNCDVDVSFMYLTFFLEDDDKLEQIRKDYTSGAMLTGELKKALIEVLQPLIAEHQARRKEVTDEIVKEFMTPRKLSFDFQ
B2: FL-TrpRS: full-length tryptophan tRNA synthetase (protein, UniProt P23381 1-471, looked up)
chain: MPNSEPASLLELFNSIATQGELVRSLKAGNASKDEIDSAVKMLVSLKMSYKAAAGEDYKADCPPGNPAPTSNHGPDATEAEEDFVDPWTVQTSSAKGIDYDKLIVRFGSSKIDKELINRIERATGQRPHHFLRRGIFFSHRDMNQVLDAYENKKPFYLYTGRGPSSEAMHVGHLIPFIFTKWLQDVFNVPLVIQMTDDEKYLWKDLTLDQAYSYAVENAKDIIACGFDINKTFIFSDLDYMGMSSGFYKNVVKIQKHVTFNQVKGIFGFTDSDCIGKISFPAIQAAPSFSNSFPQIFRDRTDIQCLIPCAIDQDPYFRMTRDVAPRIGYPKPALLHSTFFPALQGAQTKMSASDPNSSIFLTDTAKQIKTKVNKHAFSGGRDTIEEHRQFGGNCDVDVSFMYLTFFLEDDDKLEQIRKDYTSGAMLTGELKKALIEVLQPLIAEHQARRKEVTDEIVKEFMTPRKLSFDFQ
modifications: full-length
notes: full-length tryptophan tRNA synthetase

Experiments:
mouse OIR model = experiment: Mouse oxygen-induced retinopathy (OIR) model, whole-mount retina quantification of vascular obliteration and neovascular tuft areas; assay type: in vivo; parameters: vascular morphology of the retina / neovascular tuft areas compared to VEGF aptamer treated retinas: dose or concentration left out as unconfirmed; details: for effect on area of neovascular tuft formation: single intravitreal injection at P12, various doses; for effect on physiological revascularization of the retina: vs PBS control
Procedure: All animal work adhered to strict protocol guidelines for the humane care and use of animals in research. OIR was induced according to the protocol described by Smith et al. Invest. Opthalmol. Vis. Sci., 1994; 35:101-111. Seven-day old mouse pups and their mothers were transferred from room air to a hyperoxic environment of about 75% oxygen for 5 days, and afterwards returned to room air (normoxia). Exposure to hyperoxic conditions was performed by putting the animal cages within a modified human infant incubator. Oxygen was circulated through the incubator (using an animal anesthesia machine to control flow) and levels were monitored and maintained at 74-75% using an FDA-approved oxygen analyzer (AX-300, Teledyne Analytical Instruments, CA, USA). During the 5 days of hyperoxia, the animals were examined at least three times daily. Unlimited food and water were available to the mothers throughout the experiment. After 5 days, i.e., at postnatal Day 12 (P12), cages were returned to room air.
After the mice were euthanized, enucleated eyes were fixed in 4% paraformaldehyde in PBS for about 10 minutes, and the retinas were dissected by making a circular cut behind the limbus, approximately at the iris root, and then removing the anterior part of the eye. The lens and vitreous were dissected out, and the retina was separated from the scleral and choroidal layers leaving the retina in an eye-cup configuration. Radial relaxing-incisions were made in the retina to allow it to flatten and any remnants of the vitreous or hyaloid were carefully removed from the flattened retina.
For FITC-dextran angiography, animals were anaesthetized by intraperitoneal injections of Ketamine HCl (Ketalar, Parke Davis, UK, 100 mg/kg) in combination with the relaxing agent Xylazine (2 mg/kg). Approximately 300 μl of high molecular weight (2×106 Da) FITC-Dextran (concentration 50 mg/ml, Sigma, St. Louis, Mo.) were injected into the left ventricle and allowed to circulate for approximately two minutes before euthanizing the animal and enucleating the eyes. For isolectin G4 staining, retinas were post-fixed in 4% paraformaldehyde for about 45 minutes, and incubated at room temperature overnight with isolectin GS-IB4 from Griffonia simplicifolia (isolectin GS) that was conjugated to Alexa Fluor 59 4 (Molecular Probes, 1:150 dilution in phosphate buffered saline (PBS)) to afford “isolectin GS-594”. Following 4-5 washes with PBS over a 2 hour span, retinas were mounted as whole-mount preparations on slides with SLOW FADE (Molecular Probes) for subsequent imaging.
Micrographic images were taken using a 4× objective lens with a detector resolution of 512×512 pixels. Extra care was taken to focus just above the inner limiting membrane of the retina using confocal microscopy (BioRad) so that the pre-laminar neovascular tufts became more prominent than the underlying superficial vascular plexus making subsequent quantification of the neovascular tuft areas easier. In most cases, four overlapping images (each representing one retinal quadrant) were acquired from each retina. Using Adobe PHOTOSHOP® 6.0, montages were then created using retinal landmarks such as the optic disc and major vessels to align the images. These montages allowed visualization and quantification of the entire retina. In a few cases where both the obliterated areas and all areas of neovascularization were located toward the center of the retina, single 4× images centered on the optic disk were acquired. While the peripheral retina is not included in its entirety in such images, the relevant OIR-induced changes can be fully seen in these cases. Each individual image was converted to a 2×2 inch size with 300 pixels per inch resolution prior to creating the montage and quantifying the obliteration and neovascular tuft areas. […]

angiogenesis = details: previously found; cited from earlier work
[1] = single intravitreal injection at P12, read at P17

Molecule	reduction of tuft formation (mouse OIR model; P19, after two injections (P13 and P16) of lower doses, VEGF aptamer 0.5 mg/eye/injection, 53.9 picomoles)	neovascular tuft areas compared to VEGF aptamer treated retinas (mouse OIR model; T2-TrpRS, intravitreal, molar concentration 10-fold below the aptamer)	inhibition of neovascular tuft formation (mouse OIR model; about 1.25 μg/eye, intravitreal)	vascular morphology of the retina (mouse OIR model; intravitreal at P12, P17)	obliterated areas compared to control retinas (mouse OIR model; intravitreal injection, areas of obliteration equivalent at time of injection)	effect on area of neovascular tuft formation (mouse OIR model; read at P17)	reduction of obliterated areas at P17 compared to PBS control-injected retinas (mouse OIR model; [1])	effect on physiological revascularization of the retina (mouse OIR model; [1])	angiostatic activity in other models of angiogenesis (angiogenesis)
B1	over 75%	slight, but significant reduction	nearly complete inhibition	looked nearly normal	reduced by half	markedly reduced the area of neovascular tuft formation at P17 in a dose-dependent matter; also recorded: potent inhibitors of neovascular tuft formation; also recorded: strong, dose-dependent angiostatic effect	around 40%	significantly enhanced revascularization, even at lower doses	potent angiostatic potential
B2						some activity at the highest dose		significant enhancement of the revascularization process but only at the higher doses	no angiostatic activity

Source: patent US20080193435A1, “Revascularization of Ischemic Retinal Tissue and Screening Method Therefor” (priority 2005, published 2008)
